Experimental data reported in US8362216B2, “Method of detection using antibodies that specifically bind hedgehog-derived polypeptides” (The Johns Hopkins University School of Medicine, priority 1994, dated 2013).

Legend:
cholesterol biosynthesis = experiment: Sterol analysis by HPLC of COS-7 cells metabolically labelled with [3H]-mevalonic acid; format: cell-based, green monkey; settings: 28 mM jervine
Protocol: Given the structural similarities of these compounds to cholesterol and the similar teratogenic effects of cholesterol synthesis inhibitors upon the offspring of pregnant rats, a reasonable mechanism to consider for the effects of these plant sterol derivatives was the inhibition of cholesterol biosynthesis. Accordingly, COST cultured cells treated with jervine were tested for defects in cholesterol biosynthesis by labelling with [3H]-mevalonic acid and then extracting and analyzing radiolabeled, non-saponifiable lipids.
Metabolic labeling and sterol analysis was essentially as described (Popjak et al. J. Biol. Chem. 264: 630-6238.1989; Rilling et al. 1993 Arch. Biochem. Biophys. 301: 210-215.), with minor modifications. Briefly, COS-7 cells were plated at ˜35% confluence into two 60 mm dishes at 37° C. in 4 ml each of Dulbecco's modified Eagle's medium (DMEM) supplemented with 10% fetal bovine serum (FBS). After 24 hr of growth the medium in each dish was replaced with 2 ml fresh medium with 10% FBS; [^3H]-mevalonic acid (NEN #NET 176) brought to a specific activity of 0.8 Ci/mmol in a 1% solution of bovine serum albumin was added to this medium to a final concentration of […]. At this time, one dish received […] of a 4 mg/ml solution of jervine in ethanol (final concentration 28 mM jervine), and the other received […] of ethanol. After 24 hr further incubation, cells were washed in PBS, extracted with methanol, and 1 M potassium hydroxide (KOH) added to 10%. Following a three hour incubation at 60° C., the methanol/KOH mixture was extracted with diethyl ether, the extract dried down, resuspended in isopropanol, and subjected to reverse phase HPLC analysis by the method of Rodriguez and Parks (Methods in Enzymology 111: 37-51 1985).

[1] = tested on: pax-2 and pax-6 expression; experiment: Ectopic expression of twhh derivatives by mRNA injection into zebrafish embryos; format: in vivo; settings: mRNA injected embryos
Protocol: To gain insight into the potential roles of hh products in development, synthetic twhh and shh mRNA was injected into 1-8 cell embryos. This technique yields a mosaic but fairly uniform pattern of expression, as determined for the control mRNA encoding β-galactosidase (not shown). Uniformity of expression is in good agreement with fate mapping studies of the early zebrafish embryo (Kimmel & Warga, supra; Warga & Kimmel, supra; Heide, et al., Science, 265:517-520, 1994), which indicate that blastomeres undergo extensive cell mixing during the cleavages pnor to gastrulation.
Ectopic hh alters the expression of par-2, pax-6, and F-spondin. Zebrafish embryos were injected at the 1-8 cell stage with twhh or shh RNA and the pattern of pax-2, pax-6, or F-spondin expression was examined by whole mount in situ hybridization. […] At embryo stage, the anterior-posterior axis of the optic vesicle corresponds to the future proximal-distal axis of the eye. During the next hour of development, the posterior edge of the optic vesicle will separate from the diencephalon (Schmitt and Dowling, Comp. Neur., 344:532-542. 1994).
17(a) Cartoons of various twhh open reading frames. SS (shaded) is the predicted N-terminal signal sequence for secretion of these proteins and encompasses the first 27 amino acids of each open reading frame. The arrow indicates the predicted internal site of auto-proteolytic cleavage. Amino acid residue numbers are according to FIG. 13b. The filled triangle denotes the normal termination codon for the twhh open reading frame. Construct UHA contains a mutation that blocks auto-proteolysis (the histidine at residue 273 is changed to an alanine; see Lee, J. J., et al, supra.). Construct U356HA contains a stop codon in place of amino acid residue 357 as well as the H273A mutation in UHA. Construct N encodes just the first 200 amino acids of twhh. Construct C has had the codons for residues 31-197 deleted. […] Constructs were translated in vitro in the presence of ^35S methionine and analyzed by autoradiography after SDS-PAGE. The protein products are shown schematically to the left. […]

[2] = Heparin agarose binding of in vitro translated Hh protein species; parameters: species or system Drosophila; settings: wash with 0.1% Triton X-100 and 150 mM NaCl
Protocol: In vitro translations were performed with the use of the TNT coupled transcription-translation system (Promega). ^35S methionine (DuPont NEN) was used for detection by autoradiography. […] Samples were incubated at 4° C. for four hours with gentle rocking. After pelleting the beads, supernatants in some samples were analyzed (lanes 2 and 4). The beads were then washed 5 times with chilled HBB and samples (lanes 3 and 5) were subsequently eluted at 80° C. for 10 minutes in SDS PAGE loading buffer (F. M. Ausubel et al., supra).
One possible explanation for this differential behavior might be association of the N fragment with extracellular matrix proteins on the surfaces of the S2 cells. Accordingly, the relative affinity of these two proteins for heparin agarose was examined, since heparin binding is a common property of proteins that associate with the extracellular matrix. Given the obvious difficulty in obtaining soluble N from cultured cells, in vitro translation in the presence of microsomes was used to generate soluble, labelled N and C. […] Furthermore, N but not C was retained upon the heparin agarose beads upon extensive washing with a solution that contains 0.1% Triton X-100 and 150 mM NaCl; in contrast, neither fragment was retained by unmodified agarose. […]

auto-proteolysis = experiment: In vitro translation of wild-type and mutant Hh proteins (mapping of auto-proteolysis); format: biochemical, Drosophila; zebrafish
Hh autoprocessing = experiment: In vitro autocleavage assays of site-directed mutant His6Hh-C proteins; settings: 6 hours at 30° C.
[3] = tested on: wg and dpp expression in imaginal discs; experiment: Signaling in imaginal discs of thermally cycled larvae (wg-lacZ / dpp-lacZ, X-gal staining); settings: thermal cycling of larvae
From the text: For studies of signaling in imaginal discs, a thermal cycler was utilized to subject larvae carrying heat shock-inducible hh constructs to successive rounds of heat shock and recovery. The effects of temperature cycling upon expression of dpp and wg in imaginal discs was examined by monitoring β-galactosidase expression from a reporter gene carrying dpp promoter sequences or from an enhancer detector P element inserted in the wg gene. In FIG. 7, X-gal staining was used to follow expression of wg FIG. 7 (A-C) or dpp FIG. 7 (D-L) in imaginal discs of late third-instar larvae that carry wg-lacZ or dpp-lacZ reporter genes.
Virgin female flies from the homozygous lines hshh (D. T. Chang et al., Development, 1994, in press), hshh H329A, and y^1 w^1118 were crossed to males from the homozygous BS3.0 line (bearing a P element dpp reporter construct on the 2nd chromosome, referred to as dpp-lacZ) (R. K. Blackman, et al., Development 111: 657, 1991) or the line y; Sco/CyO, enlacZ11::wg (bearing a wg reporter P element enhancer trap on a second chromosome balancer; called wg-lacZ) (J. A. Kassis, et al., Proc. Natl. Acad. Sci. U.S.A. 89; 1919, 1992). Progeny were grown at 25° C. in aerated 0.5-ml microcentrifuge tubes containing yeast paste until the late second instar or early third instar stage of larval development. […]

wg expression = experiment: Embryonic induction of wg expression after heat shock of hshh / hshh H329A embryos (in situ hybridization)
From the text: To ascertain the importance of auto-proteolysis for these functions, the H329A mutant gene under control of the hsp 70 promoter was introduced by P element-mediated transformation into the Drosophila germline. The hshh H329A construct was made identically to the hshh construct with the use of a hh ORF fragment containing the H329A mutation. Transgenic flies were generated from a y^1 w^1118 parental strain using standard methods of P element mediated transformation (A. C. Spradling and G. M. Rubin, Science 218: 341 1982). […] To assay for expansion of wg stripes, embryos collected at 4 to 6 hours after egg laying (AEL) at 25° C. were subjected to the following heat shock protocols prior to fixation. Embryos receiving single shocks (10 or 30 minutes at 37° C.) were allowed to recover for 1 hour at 25° C. Embryos receiving double shocks (two 10 minute or two 30 minute shocks at 37° C.) were allowed to recover 90 minutes after the first shock and 40 minutes after the second (Both recoveries were at 25° C. The double 30 minute protocol was as previously described, (S. Krauss, supra). In situ hybridizations were performed as described (D. Tautz, Chromosoma 98: 81, 1989) using a wg specific probe (D. T. Chang et al., supra). Embryos assayed for cuticle phenotype were heat shocked 6 to 8 hours AEL for 30 minutes at 37° C., allowed to develop at 25° C. for 36 hours and then processed and mounted as described (M. Ashburner, Drosophila: A Laboratory Manual, Cold Spring Harbor Laboratory Press, New York, 1989).

Molecule: CC1=C2C(=O)[C@H]3[C@@H](CC=C4C[C@@H](O)CC[C@@]43C)[C@@H]2CC[C@]12O[C@@H]1C[C@H](C)CN[C@H]1[C@H]2C [jervine]
- Accumulation of another radiolabeled sterol (tentatively zymosterol) (cholesterol biosynthesis; COS 7 cells, 24 hr): another radiolabeled sterol was found to accumulate
- Radiolabeled cholesterol levels (cholesterol biosynthesis; COS 7 cells, 24 hr): reduced
- Cholesterol biosynthesis in cultured cells (cholesterol biosynthesis; COS-7 cells): inhibits cholesterol biosynthesis

B1: UHA: twhh with H273A mutation that blocks auto-proteolysis (protein, UniProt Q90419 27-416, looked up, variant H273A)
Tiggy-winkle hedgehog protein: CGPGRGYGKRRHPKKLTPLAYKQFIPNVAEKTLGASGKYEGKITRNSERFKELIPNYNPDIIFKDEENTNADRLMTKRCKDKLNSLAISVMNHWPGVKLRVTEGWDEDGHHLEESLHYEGRAVDITTSDRDKSKYGMLSRLAVEAGFDWVYYESKAHIHCSVKAENSVAAKSGGCFPGSGTVTLGDGTRKPIKDLKVGDRVLAADEKGNVLISDFIMFIDHDPTTRRQFIVIETSEPFTKLTLTAAALVFVGNSSAASGITATFASNVKPGDTVLVWEDTCESLKSVTVKRIYTEEHEGSFAPVTAHGTIIVDQVLASCYAVIENHKWAHWAFAPVRLCHKLMTWLFPARESNVNFQEDGIHWYSNMLFHIGSWLLDRDSFHPLGILHLS
- Ectopic activation (induction) of pax-2 in the developing eye [1]: only somewhat less active than C in inducing pax-2
- Repression of pax-6 [1]: not able to repress pax6 efficiently

B2: U356HA: twhh with stop codon in place of residue 357 and the H273A mutation (protein, UniProt Q90419 27-416, looked up, variant H273A)
Tiggy-winkle hedgehog protein: CGPGRGYGKRRHPKKLTPLAYKQFIPNVAEKTLGASGKYEGKITRNSERFKELIPNYNPDIIFKDEENTNADRLMTKRCKDKLNSLAISVMNHWPGVKLRVTEGWDEDGHHLEESLHYEGRAVDITTSDRDKSKYGMLSRLAVEAGFDWVYYESKAHIHCSVKAENSVAAKSGGCFPGSGTVTLGDGTRKPIKDLKVGDRVLAADEKGNVLISDFIMFIDHDPTTRRQFIVIETSEPFTKLTLTAAALVFVGNSSAASGITATFASNVKPGDTVLVWEDTCESLKSVTVKRIYTEEHEGSFAPVTAHGTIIVDQVLASCYAVIENHKWAHWAFAPVRLCHKLMTWLFPARESNVNFQEDGIHWYSNMLFHIGSWLLDRDSFHPLGILHLS
modifications: truncated after residue 356
notes: twhh with stop codon in place of residue 357 and the H273A mutation
- Repression of pax-6 [1]: activities not significantly different from N

B3: C-terminal fragment: Drosophila hh 25 kD C-terminal fragment (protein)
chain: CFTPESTALLESGVRKPLGELSIGDRVLSMTANGQAVYSEVILFMDRNLEQMQNFVQLHTDGGAVLTVTPAHLVSVWQPESQKLTFVFADRIEEKNQVLVRDVETGELRPQRVVKVGSVRSKGVVAPLTREGTIVVNSVAASCYAVINSQSLAHWGLAPMRLLSTLEAWLPAKEQLHSSPKVVSSAQQQNGIHWYANALYKVKDYVLPQSWRHD
- Binding to heparin agarose [2]: not bound effectively by heparin agarose

B4: H329A: Drosophila Hh with His-329 to alanine; in vitro translated full length and His6Hh-C25 context (protein)
chain: CGPGRGLGRHRARNLYPLVLKQTIPNLSEYTNSASGPLEGVIRRDSPKFKDLVPNYNRDILFRDEEGTGADRLMSKRCKEKLNVLAYSVMNEWPGIRLLVTESWDEDYHHGQESLHYEGRAVTIATSDRDQSKYGMLARLAVEAGFDWVSYVSRRHIYCSVKSDSSISSHVHGCFTPESTALLESGVRKPLGELSIGDRVLSMTANGQAVYSEVILFMDRNLEQMQNFVQLHTDGGAVLTVTPAALVSVWQPESQKLTFVFADRIEEKNQVLVRDVETGELRPQRVVKVGSVRSKGVVAPLTREGTIVVNSVAASCYAVINSQSLAHWGLAPMRLLSTLEAWLPAKEQLHSSPKVVSSAQQQNGIHWYANALYKVKDYVLPQSWRHD
- Auto-proteolysis (processing) of in vitro translated protein (auto-proteolysis): blocked or severely inhibited
- Cholesterol-stimulated autocleavage (cholesterol transfer) (Hh autoprocessing; 350 μM cholesterol/1 mM DTT): inactive
- DTT-stimulated autocleavage (thioester formation) (Hh autoprocessing; 50 mM DTT): inactive

B5: hshh H329A: heat shock-inducible hh with H329A mutation blocking auto-proteolysis (protein)
chain: CGPGRGLGRHRARNLYPLVLKQTIPNLSEYTNSASGPLEGVIRRDSPKFKDLVPNYNRDILFRDEEGTGADRLMSKRCKEKLNVLAYSVMNEWPGIRLLVTESWDEDYHHGQESLHYEGRAVTIATSDRDQSKYGMLARLAVEAGFDWVSYVSRRHIYCSVKSDSSISSHVHGCFTPESTALLESGVRKPLGELSIGDRVLSMTANGQAVYSEVILFMDRNLEQMQNFVQLHTDGGAVLTVTPAALVSVWQPESQKLTFVFADRIEEKNQVLVRDVETGELRPQRVVKVGSVRSKGVVAPLTREGTIVVNSVAASCYAVINSQSLAHWGLAPMRLLSTLEAWLPAKEQLHSSPKVVSSAQQQNGIHWYANALYKVKDYVLPQSWRHD
- Expansion of dpp expression in the eye-antennal disc [3]: did not induce expansion of dpp expression
- wg and dpp expression patterns in the leg disc [3]: produced little if any detectable difference in these patterns of expression
- Expansion of wg expression beyond wild-type controls, average number of cell diameters ± standard deviation (wg expression; minutes of heat shock: 10): 0.7 ± 0.5 cell diameters
- Expansion of wg expression beyond wild-type controls, average number of cell diameters ± standard deviation (wg expression; minutes of heat shock: 10/10): 1.1 ± 0.4 (145) cell diameters
- Expansion of wg expression beyond wild-type controls, average number of cell diameters ± standard deviation (wg expression; minutes of heat shock: 30): 0.9 ± 0.4 (111) cell diameters
- Expansion of wg expression beyond wild-type controls, average number of cell diameters ± standard deviation (wg expression; minutes of heat shock: 30/30): 1.9 ± 0.5 (93) cell diameters
